Reference: patent publication US20250197889

B1: Nme1Cas9 (Neisseria meningitidis strain 8013 Cas9), recombinant purified protein (protein)
chain: MAAFKPNSINYILGLDIGIASVGWAMVEIDEEENPIRLIDLGVRVFERAEVPKTGDSLAMARRLARSVRRLTRRRAHRLLRTRRLLKREGVLQAANFDENGLIKSLPNTPWQLRAAALDRKLTPLEWSAVLLHLIKHRGYLSQRKNEGETADKELGALLKGVAGNAHALQTGDFRTPAELALNKFEKESGHIRNQRSDYSHTFSRKDLQAELILLFEKQKEFGNPHVSGGLKEGIETLLMTQRPALSGDAVQKMLGHCTFEPAEPKAAKNTYTAERFIWLTKLNNLRILEQGSERPLTDTERATLMDEPYRKSKLTYAQARKLLGLEDTAFFKGLRYGKDNAEASTLMEMKAYHAISRALEKEGLKDKKSPLNLSPELQDEIGTAFSLFKTDEDITGRLKDRIQPEILEALLKHISFDKFVQISLKALRRIVPLMEQGKRYDEACAEIYGDHYGKKNTEEKIYLPPIPADEIRNPVVLRALSQARKVINGVVRRYGSPARIHIETAREVGKSFKDRKEIEKRQEENRKDREKAAAKFREYFPNFVGEPKSKDILKLRLYEQQHGKCLYSGKEINLGRLNEKGYVEIDHALPFSRTWDDSFNNKVLVLGSENQNKGNQTPYEYFNGKDNSREWQEFKARVETSRFPRSKKQRILLQKFDEDGFKERNLNDTRYVNRFLCQFVADRMRLTGKGKKRVFASNGQITNLLRGFWGLRKVRAENDRHHALDAVVVACSTVAMQQKITRFVRYKEMNAFDGKTIDKETGEVLHQKTHFPQPWEFFAQEVMIRVFGKPDGKPEFEEADTLEKLRTLLAEKLSSRPEAVHEYVTPLFVSRAPNRKMSGQGHMETVKSAKRLDEGVSVLRVPLTQLKLKDLEKMVNREREPKLYEALKARLEAHKDDPAKAFAEPFYKYDKAGNRTQQVKAVRVEQVQKTGVWVRNHNGIADNATMVRVDVFEKGDKYYLVPIYSWQVAKGILPDRAVVQGKDEEDWQLIDDSFNFKFSLHPNDLVEVITKKARMFGYFASCHRGTGNINIRIHDLDHKIGKNGILEGIGVKTALSFQKYQIDELGKEIRPCRLKKRPPVR
- in vitro cleavage of a target DNA by Cas9-sgRNA (10:1 Acr:Cas9 molar ratio) (AcrIIC1Nme): all Arc families inhibited Nme1Cas9
- in vitro cleavage of a target DNA by Cas9-sgRNA (10:1 Acr:Cas9 molar ratio) (AcrIIC4Hpa): all Arc families inhibited Nme1Cas9
- in vitro cleavage of a target DNA by Cas9-sgRNA (10:1 Acr:Cas9 molar ratio) (AcrE2): AcrE2 failed to do so
- in vitro cleavage of a target DNA by Cas9-sgRNA (10:1 Acr:Cas9 molar ratio) (AcrIIC2Nme): all Arc families inhibited Nme1Cas9
- in vitro cleavage of a target DNA by Cas9-sgRNA (10:1 Acr:Cas9 molar ratio) (AcrIIC3Nme): all Arc families inhibited Nme1Cas9
- in vitro cleavage of a target DNA by Cas9-sgRNA (10:1 Acr:Cas9 molar ratio) (AcrIIC5Smu): all Arc families inhibited Nme1Cas9
